Measured values from publication PMC9364032, “RNA induces unique tau strains and stabilizes Alzheimer’s disease seeds”.

Tests used:
Conditions in all cases: protein: recombinant; single strand
[1] = target: T1, tau 2N4R full-length monomer, WT (UniProt P10636-8 1-441); assay: BLI; apparent Kd, 2:1 model; kon 1.0e4 M-1 s-1, koff 1.4e-4 s-1; mean of 3; BLI (Octet, AR2G sensors, tau immobilized), nucleic acid 0.13-41 uM; buffer, salt, pH and temperature not given in the material
[2] = target: T1, tau 2N4R full-length monomer, WT; assay: BLI; apparent Kd, 2:1 model; kon 1.7e3 M-1 s-1, koff 4.2e-4 s-1; mean of 3; BLI (Octet, AR2G sensors, tau immobilized), nucleic acid 0.13-41 uM; buffer, salt, pH and temperature not given in the material
[3] = target: T1, tau 2N4R full-length monomer, WT; assay: BLI; apparent Kd, 2:1 model; kon 2.8e4 M-1 s-1, koff 3.4e-4 s-1; mean of 3; BLI (Octet, AR2G sensors, tau immobilized), nucleic acid 0.13-41 uM; buffer, salt, pH and temperature not given in the material

T1 sequence (P10636 other isoform, or with tags, fused parts or gaps): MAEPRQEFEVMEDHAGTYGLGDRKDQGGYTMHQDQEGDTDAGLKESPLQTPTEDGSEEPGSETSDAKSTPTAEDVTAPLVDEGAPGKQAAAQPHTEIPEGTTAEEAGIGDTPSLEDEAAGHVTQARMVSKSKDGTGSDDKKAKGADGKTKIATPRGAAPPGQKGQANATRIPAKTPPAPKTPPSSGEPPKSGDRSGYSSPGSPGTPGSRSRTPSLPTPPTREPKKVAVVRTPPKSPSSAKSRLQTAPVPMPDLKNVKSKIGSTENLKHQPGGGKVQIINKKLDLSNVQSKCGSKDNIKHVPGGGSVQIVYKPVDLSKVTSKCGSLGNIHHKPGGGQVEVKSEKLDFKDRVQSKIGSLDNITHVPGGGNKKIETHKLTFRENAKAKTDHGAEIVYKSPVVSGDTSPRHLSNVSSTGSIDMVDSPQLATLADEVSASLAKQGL

AAAAAAAAAAAAAAAAAAAAAAAAAAAAAAAAAAAAAAAA (ssRNA) [PolyA 40-mer RNA] was tested, and the Kd [1] was 20 nM.

UUUUUUUUUUUUUUUUUUUUUUUUUUUUUUUUUUUUUUUU (ssRNA) [PolyU 40-mer RNA] showed a Kd [2] of 254 nM.

In the case of GTTAAGTCCCGAACTAGATGTGACCTAACGGTAAGAGAAT (ssDNA) [ssDNA Seq1 (random 40-mer)], the Kd [3] is reported as 12 nM.
